Results published in PMC10393992 (Nature Communications, 2023).

Biological target: the molecule itself
Assay: SEC; Superdex 75 10/300 GL; 20 mM NaCl, 25 mM HEPES, 0.2 mM 2-mercaptoethanol; size from a calibration curve of marker proteins

B1: His-CIP4-HR1 (domain or fragment, Mus musculus, UniProt Q8CJ53-3 339-425, looked up)
chain: PPEQQRKRLQQQLEERNRELQKEEDQREALKKMKDVYEKTPQMGDPASLEPRIAETLGNIERLKLEVQKYEAWLAEAESRVLSNRGD
notes: CIP4, Mus musculus, HR1, a.a; 339-425; numbers count on: UniProt Q8CJ53-3; also called homology region 1 of CIP4; source: E. coli BL21-CodonPlus (DE3)-RIL, purified (Ni-NTA agarose, dialysis)
For B1, which “stoichiometry N” value is on record?
Its value is 2.
